{"source": "paper PMC10659578", "about": "“Mechanism of stepwise electron transfer in six-transmembrane epithelial antigen of the prostate (STEAP) 1 and 2” (eLife, 2023)", "system": "T1, Cc1cc2c(cc1C)N(C[C@H](O)[C@H](O)[C@H](O)COP(=O)(O)OP(=O)(O)OC[C@H]1O[C@@H](n3cnc4c(N)ncnc43)[C@H](O)[C@@H]1O)c1[nH]c(=O)[nH]c(=O)c1N2", "T1 construct": "full-length, expressed and purified as in Kim et al. 2016; detergent-solubilised", "assay": "rapid-scan stopped-flow heme reduction (A427), kobs vs [FADH-]", "assay_type": "biochemical, Oryctolagus cuniculus", "conditions": "fast phase, single-turnover heme reduction, anaerobic, 20 mM HEPES pH 7.5, 150 mM NaCl, 0.1% LMNG"}
{"substance": "STEAP1 (Oryctolagus cuniculus)", "values": [{"measurement": "Km", "setting": "60% of change", "value": 4.7, "unit": "µM"}]}
{"substance": "STEAP1 (Oryctolagus cuniculus; L230G)", "values": [{"measurement": "Km", "setting": "79% of change", "value": 3.6, "unit": "µM"}]}
